Reference: article PMC9701214, “Orthogonal glycolytic pathway enables directed evolution of noncanonical cofactor oxidase” (Nature Communications, 2022)
Residue numbers refer to the chain shown, from its start. Names may count otherwise.

B1: Lp Nox (Lactiplantibacillus pentosus; D177W/G178E/I158S/V240L) (protein)
chain: MKVIVIGCTHAGTAAVNQILASNPETDVTIYERNDNVSFLSCGIALYLGGEVADPQGLFYSSPEQLAKLGANVHMQHDVTDVDTENHEITVTDLKTGESKKDYYDKLVVTTGSWPVIPPIDGIDSPNVYLCKNWTHAQSLWEAAKPAKRVIVIGGGYSGTELVEAYQKQGKEVTLIWELPRILNKYLDKGFTDRVEKDFVDHGIKMALNQMVKGFSDDGKEVTVKTDKGSYTADMAILCLGFRPNTSLLKGKVDMNPNGSIKTNDYMQTSDPDIYGAGDSVAVHYNPTKKDAYIPLATNAVRQGTLVGLNIFKPTRKYMGTQSTSGLMLFGKTIVSSGMTLEHAQAEKVPAEAVTFEDNYRPEFMPTTKPVLMQLVYNPETREILGAQFMSEHDVSQSANVISVMIQNHNTIDDLGFVDMFFQPIYDRPFNYLNLLGQAAIAHAAEKVTE
notes: recombinant from E. coli BL21(DE3), pQElac vector (pLS504), purified on His-Spin column (His-tag implied); FAD added at lysis
B2: Lp Nox (Lactiplantibacillus pentosus; D177W/I158S/V240L) (protein)
chain: B1 chain with E178G
notes: as for B1
B3: Lp Nox (Lactiplantibacillus pentosus) (protein)
chain: B1 chain with S158I, W177D, E178G, L240V
notes: as for B1

Experiments:
XenA = molecular target: T1, XenA (Pseudomonas putida, UniProt Q9R9V9); assay: specific activity, absorbance at […] nm; assay type: biochemical; details: 0.2 mM reduced cofactor, 5 mM ketoisophorone, 200 mM potassium phosphate pH 7.5, 37 °C
T1 construct: purified recombinant enzyme (plasmid pEK102 carries XenA WT)
T1 sequence (Q9R9V9 entry or part of it): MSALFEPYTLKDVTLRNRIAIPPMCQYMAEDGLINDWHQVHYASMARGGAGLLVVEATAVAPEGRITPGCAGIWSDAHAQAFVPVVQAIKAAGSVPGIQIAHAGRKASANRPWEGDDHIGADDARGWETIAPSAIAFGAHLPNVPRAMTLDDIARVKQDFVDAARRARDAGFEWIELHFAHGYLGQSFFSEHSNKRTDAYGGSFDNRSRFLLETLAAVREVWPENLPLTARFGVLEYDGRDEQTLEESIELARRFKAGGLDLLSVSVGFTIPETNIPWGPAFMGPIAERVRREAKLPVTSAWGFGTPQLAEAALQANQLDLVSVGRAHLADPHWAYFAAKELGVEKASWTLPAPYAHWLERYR

purified protein [1] = substrate: NC(=O)C1=CN([C@@H]2O[C@H](COP(=O)(O)OP(=O)(O)OC[C@H]3O[C@@H](n4cnc5c(N)ncnc54)[C@H](O)[C@@H]3O)[C@@H](O)[C@H]2O)C=CC1; assay: purified protein; assay type: biochemical, Lactiplantibacillus pentosus; details: 50 mM Tris-HCl pH 7.0, 37 °C, apparent
purified protein [2] = substrate: NC(=O)C1=CN([C@@H]2O[C@H](COP(=O)(O)OP(=O)(O)OC[C@H]3O[C@@H](n4cnc5c(N)ncnc54)[C@H](OP(=O)(O)O)[C@@H]3O)[C@@H](O)[C@H]2O)C=CC1; assay: purified protein; assay type: biochemical, Lactiplantibacillus pentosus; details: 50 mM Tris-HCl pH 7.0, 37 °C, apparent

| Molecule | specific activity, absorbance at 340 nm (XenA) | Km (purified protein [1]) [µM] | kcat (purified protein [1]) [s⁻¹] | kcat/Km (purified protein [1]) [M⁻¹ s⁻¹] | Km (purified protein [2]) [µM] | kcat (purified protein [2]) [s⁻¹] | kcat/Km (purified protein [2]) [M⁻¹ s⁻¹] |
| --- | --- | --- | --- | --- | --- | --- | --- |
| NC(=O)C1=CN([C@@H]2O[C@H](COP(=O)(O)O)[C@@H](O)[C@H]2O)C=CC1 [NMNH] | Specific activities of redox partners toward NMNH. | – | – | – | – | – | – |
| B1 | – | 1900 ± 40 | 31 ± 1 | 17000 ± 200 | 1100 ± 100 | 28 ± 1 | 26000 ± 1000 |
| B2 | – | 1700 ± 200 | 47 ± 4 | 28000 ± 1000 | 890 ± 40 | 27 ± 2 | 31000 ± 1000 |
| B3 | – | 25 ± 1 | 21 ± 0.3 | 840000 ± 10000 | 1900 ± 200 | 18 ± 2 | 9300 ± 200 |
